Measurements reported in patent US20120328616A1 (Amgen, published 2012).

Legend:
[1] = target: T1, human FGFR1c (human, UniProt P11362 22-822); experiment: flow cytometry, transfected HEK293T
T1 construct: Full length (GenBank NP-075598), expressed on transfected 293T cells; also called huFGFR1c; FGFR1c alone

[2] = target: T2, huBeta_Klotho (1-507) (muBetaKLOTHO 506F-1045S) (human; murine, UniProt Q99N32 1-1043); experiment: flow cytometry, transfected HEK-293T
T2 construct: also called Chimera 2; Construct 2

[3] = target: T3, huBeta_Klotho (1-633, 852-1044) (muBeta KLOTHO 632G-849Q) (human; murine, UniProt Q86Z14 1-1044); experiment: flow cytometry, transfected HEK-293T
T3 construct: also called Chimera 10; Construct 10

[4] = target: T4, huBeta_Klotho (1-736, 967-1044) (muBeta KLOTHO 735A-963S) (human; murine, UniProt Q86Z14 1-1044); experiment: flow cytometry, transfected HEK-293T
T4 construct: also called Chimera 11; Construct 11

[5] = target: T5, murine β-Klotho (murine, UniProt Q99N32 1-1043); experiment: flow cytometry, transfected HEK-293T
T5 construct: Full length (GenBank NP-112457), transiently expressed on HEK-293T cells; also called mu β-klotho; mouse β-Klotho
T5 sequence: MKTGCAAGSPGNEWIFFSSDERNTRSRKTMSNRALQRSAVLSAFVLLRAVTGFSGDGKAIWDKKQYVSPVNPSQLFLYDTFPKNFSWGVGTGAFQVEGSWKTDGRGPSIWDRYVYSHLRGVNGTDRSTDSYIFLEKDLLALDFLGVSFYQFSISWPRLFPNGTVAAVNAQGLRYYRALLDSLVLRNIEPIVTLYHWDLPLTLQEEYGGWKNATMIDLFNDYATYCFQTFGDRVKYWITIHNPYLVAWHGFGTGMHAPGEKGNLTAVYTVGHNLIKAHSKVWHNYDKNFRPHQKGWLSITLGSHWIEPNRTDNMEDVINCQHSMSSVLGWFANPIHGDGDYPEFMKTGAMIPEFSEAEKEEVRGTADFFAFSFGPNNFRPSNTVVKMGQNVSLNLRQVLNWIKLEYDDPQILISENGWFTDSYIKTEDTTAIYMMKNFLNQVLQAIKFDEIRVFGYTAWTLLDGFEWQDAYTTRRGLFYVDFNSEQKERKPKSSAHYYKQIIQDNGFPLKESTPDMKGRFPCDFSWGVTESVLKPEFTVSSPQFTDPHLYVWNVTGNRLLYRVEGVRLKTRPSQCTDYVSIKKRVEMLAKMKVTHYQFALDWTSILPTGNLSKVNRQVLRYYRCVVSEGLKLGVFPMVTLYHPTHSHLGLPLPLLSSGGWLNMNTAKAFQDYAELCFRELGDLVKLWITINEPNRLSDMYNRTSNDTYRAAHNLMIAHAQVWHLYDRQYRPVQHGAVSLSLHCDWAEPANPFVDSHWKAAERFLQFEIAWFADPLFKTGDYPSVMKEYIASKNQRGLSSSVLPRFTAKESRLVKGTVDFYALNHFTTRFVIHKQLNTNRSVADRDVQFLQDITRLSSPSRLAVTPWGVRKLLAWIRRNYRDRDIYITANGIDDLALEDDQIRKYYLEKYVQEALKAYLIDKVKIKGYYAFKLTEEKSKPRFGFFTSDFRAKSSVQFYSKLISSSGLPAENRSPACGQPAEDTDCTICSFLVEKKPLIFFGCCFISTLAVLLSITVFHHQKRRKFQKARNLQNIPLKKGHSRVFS

[6] = target: T6, huBeta_Klotho (1-301, 509-743, 967-1044) (muBeta KLOTHO 302-506, 742-964) (human; murine, UniProt Q86Z14 1-1044); experiment: flow cytometry, transfected HEK-293T
T6 construct: also called Chimera 14; Construct 14
T6 chain: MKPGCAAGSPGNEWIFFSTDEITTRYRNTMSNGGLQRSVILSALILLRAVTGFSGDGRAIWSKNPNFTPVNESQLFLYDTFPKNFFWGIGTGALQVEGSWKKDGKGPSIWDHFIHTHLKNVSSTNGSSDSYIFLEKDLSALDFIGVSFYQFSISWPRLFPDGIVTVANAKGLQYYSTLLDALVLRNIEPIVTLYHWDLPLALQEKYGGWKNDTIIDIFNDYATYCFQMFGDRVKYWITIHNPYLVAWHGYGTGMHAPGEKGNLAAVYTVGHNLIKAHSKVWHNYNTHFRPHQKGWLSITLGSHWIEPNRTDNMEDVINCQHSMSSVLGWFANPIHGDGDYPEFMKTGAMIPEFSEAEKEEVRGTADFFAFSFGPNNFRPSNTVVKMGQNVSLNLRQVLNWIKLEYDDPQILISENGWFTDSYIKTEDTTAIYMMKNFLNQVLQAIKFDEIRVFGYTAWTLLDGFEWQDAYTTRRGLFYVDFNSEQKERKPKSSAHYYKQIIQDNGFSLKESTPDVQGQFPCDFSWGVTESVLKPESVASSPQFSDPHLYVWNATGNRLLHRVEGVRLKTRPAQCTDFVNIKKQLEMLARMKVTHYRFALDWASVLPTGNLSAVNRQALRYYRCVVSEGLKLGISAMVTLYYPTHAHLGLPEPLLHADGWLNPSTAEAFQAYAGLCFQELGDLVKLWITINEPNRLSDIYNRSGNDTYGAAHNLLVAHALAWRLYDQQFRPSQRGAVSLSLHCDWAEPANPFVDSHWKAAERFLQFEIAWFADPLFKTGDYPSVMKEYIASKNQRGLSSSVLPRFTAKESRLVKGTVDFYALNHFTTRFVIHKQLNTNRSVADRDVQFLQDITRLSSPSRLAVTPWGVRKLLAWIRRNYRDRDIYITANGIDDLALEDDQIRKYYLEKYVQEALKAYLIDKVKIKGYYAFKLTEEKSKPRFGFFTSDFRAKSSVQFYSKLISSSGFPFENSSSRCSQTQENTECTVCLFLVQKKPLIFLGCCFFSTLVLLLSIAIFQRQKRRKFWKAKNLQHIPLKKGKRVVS

Measured: binding result

B1: 54A1.1 (antibody, V domains shown)
VH: QVQLVQSGAEVKKPGASVKVSCKASGYTFTSYDINWVRQATGQGLEWMGWMNPHSGNTGYAQKFQGRVTMTRNTSINTAYMELSSLRSEDTAVYYCAKYNWNYGAFDFWGQGTMVTVSS
VL: DIQMAQSPSSLSASVGDRVTITCQASQDISIYLNWYQLKPGKAPKLLIYDVSNLETGVPSRFSGGGSGTDFTFTISSLQPEDIATYYCQQYDNLPLTFGPGTKVDIKR
binds: [2] | [3] | [4]
no binding: all other assays above
